# Reference: the Human Domainome abundance scans (Beltran et al. 2025)
# ± gives the uncertainty stated by the source.
# B1: RAS guanyl-releasing protein 1, residues 539 to 593; numbered along this chain, O95267 (parent)
# chain: GFPHNFQETTYLKPTFCDNCAGFLWGVIKQGYRCKDCGMNCHKQCKDLVVFECKK
# Variants of: B1
# Experiment: abundance fitness (aPCA) (normalised: wild type 0, dead -1); higher = more abundant; growth selection in yeast, the domain comes from the species named
# Conditions: Homo sapiens
row,Variant,abundance fitness
1,GFPHNFQETTYLKPTFCDNCAGFLWGVQKQGYRCKDCGMNCHKQCKDLVVFECKK [I28Q],-0.462 ± 0.17
2,GFPHNFQETTYLKPTFCDNCAGFLWGVTKQGYRCKDCGMNCHKQCKDLVVFECKK [I28T],-0.116 ± 0.07
3,GFPHNFQETTYLKPTFCDNCAGFLHGVIKQGYRCKDCGMNCHKQCKDLVVFECKK [W25H],-0.226 ± 0.15
4,GFPHNFQETTYLKPTFCDNCAGFLGGVIKQGYRCKDCGMNCHKQCKDLVVFECKK [W25G],-0.425 ± 0.076
5,GFPHNFQETTYLKPTFCDNCAGFLFGVIKQGYRCKDCGMNCHKQCKDLVVFECKK [W25F],-0.143 ± 0.15
6,GFPHNFQETTYLKPTFCDNCAGFLMGVIKQGYRCKDCGMNCHKQCKDLVVFECKK [W25M],-0.247 ± 0.13
7,GFPHNFQETTYLKPTFCDNCAGFLWGVIKQGYRCKDCGMNCPKQCKDLVVFECKK [H42P],-0.859 ± 0.16
8,GFPHNFQETTYLKPTFCDNCAGFLWGVIKQGYRCKDCGMNCAKQCKDLVVFECKK [H42A],-0.841 ± 0.095
9,GFPHNFQETTYLKPTFCDNCAGFLWGVIKQGYRCKDCGMNCNKQCKDLVVFECKK [H42N],-0.815 ± 0.28
10,GFPHNFQETTYLKPTFCDNCAGFQWGVIKQGYRCKDCGMNCHKQCKDLVVFECKK [L24Q],-0.424 ± 0.13
11,GFPHNFQETTYLKPTFCDNCAGFLWGVIKQGYRCKDCGMNCHWQCKDLVVFECKK [K43W],-0.481 ± 0.16
12,GFPHNFQETTYLKPTFCDNCAGFLWGVIKQGYRCKDCGMNCHFQCKDLVVFECKK [K43F],-0.24 ± 0.21
13,GFPHNFQETTYLKPTFCDNCAGFLWGVIKQGYRCKDCGMNCHDQCKDLVVFECKK [K43D],0.011 ± 0.093
14,GFPHNFQETTYLKPTFCDNCAGFLWGVIKQGYRCKDCGMNCHKQCEDLVVFECKK [K46E],-0.013 ± 0.087
15,GTPHNFQETTYLKPTFCDNCAGFLWGVIKQGYRCKDCGMNCHKQCKDLVVFECKK [F2T],-0.15 ± 0.097
16,GFPHNFQETTYLKPTFCDNCAGFLWGVIYQGYRCKDCGMNCHKQCKDLVVFECKK [K29Y],-0.011 ± 0.12
17,GFPHNFQETTYLKPTFCDNCAGFLWGVIWQGYRCKDCGMNCHKQCKDLVVFECKK [K29W],-0.256 ± 0.14
18,GFPHNFQETTYLKPTFCDNCAGFLWGVIKQGYRCKDCGMNCHKQCKDLVVFHCKK [E52H],-0.053 ± 0.13
19,GFPHNFQETTYLKPTFCDNCAGFLWGVIKQGYRCKDCGMNCHKQCKDLVVFICKK [E52I],-0.063 ± 0.11
20,GFPHNFQETTYLKPTFCDNCAGFLWAVIKQGYRCKDCGMNCHKQCKDLVVFECKK [G26A],-0.225 ± 0.094
21,GFPHNFQETTYLKPTFCDNCAGFLWGVIKQGYRCKDCGMNCHKQCKDLVVFEVKK [C53V],-0.103 ± 0.062
22,GFPHNFQETTYLKPTFCDNCAGFLWGVIKQGYRCVDCGMNCHKQCKDLVVFECKK [K35V],-0.135 ± 0.07
23,GFPHNFQETTYLKPTFCDNCAGFLWGVIKQGYRCKDCGMNCHKQCKCLVVFECKK [D47C],0.212 ± 0.097
24,GFPHNFQETTYLKPTFCDNCAGFLWGVIKQGYRCKDCGMNCHKQCKPLVVFECKK [D47P],-0.054 ± 0.11

row,Variant,abundance fitness
1,GFPHNFQETTYLKPTFCDNCAGFLWGVIKQGYRCKDCGMNCHKQCKTLVVFECKK [D47T],0.047 ± 0.09
2,GFRHNFQETTYLKPTFCDNCAGFLWGVIKQGYRCKDCGMNCHKQCKDLVVFECKK [P3R],-0.015 ± 0.078
3,GFPNNFQETTYLKPTFCDNCAGFLWGVIKQGYRCKDCGMNCHKQCKDLVVFECKK [H4N],-0.708 ± 0.1
4,GFPHNFQETTYLKPTFCDNCAGNLWGVIKQGYRCKDCGMNCHKQCKDLVVFECKK [F23N],-0.628 ± 0.16
5,GFPHNFQETTYLKPTFCDNCAFFLWGVIKQGYRCKDCGMNCHKQCKDLVVFECKK [G22F],-0.386 ± 0.14
6,GFPHNFQETTYLKPTFCDNCAPFLWGVIKQGYRCKDCGMNCHKQCKDLVVFECKK [G22P],-0.595 ± 0.19
7,GFPHNFQETTYLKPTFCDNCAGFLWGVIKQGYRCKDCGMNCHKQCKDLVVFECEK [K54E],-0.103 ± 0.1
8,GFPHNFQETTYLKPTFCDNCAGFLWGVIKQGYRCKDCGMNCHKQCKDLVVFECFK [K54F],-0.228 ± 0.092
9,GFPHNFQETTYLKPTFCDNCAGFLWGVIKQGYRCKDCGMNCHKQCKDLVVFECIK [K54I],-0.266 ± 0.12
10,GFPHNFQETTYLKPTFCDNNAGFLWGVIKQGYRCKDCGMNCHKQCKDLVVFECKK [C20N],-1.29 ± 0.39
11,GFPHNFQETTYLKPFFCDNCAGFLWGVIKQGYRCKDCGMNCHKQCKDLVVFECKK [T15F],-0.434 ± 0.15
12,VFPHNFQETTYLKPTFCDNCAGFLWGVIKQGYRCKDCGMNCHKQCKDLVVFECKK [G1V],-0.007 ± 0.11
13,SFPHNFQETTYLKPTFCDNCAGFLWGVIKQGYRCKDCGMNCHKQCKDLVVFECKK [G1S],0.218 ± 0.14
14,EFPHNFQETTYLKPTFCDNCAGFLWGVIKQGYRCKDCGMNCHKQCKDLVVFECKK [G1E],0.003 ± 0.1
15,GFPHNFQETTYLKPTFCSNCAGFLWGVIKQGYRCKDCGMNCHKQCKDLVVFECKK [D18S],0.028 ± 0.084
16,GFPHNFQETTYLKPTFCFNCAGFLWGVIKQGYRCKDCGMNCHKQCKDLVVFECKK [D18F],-0.063 ± 0.099
17,GFPHNFQETTYLKPTFCENCAGFLWGVIKQGYRCKDCGMNCHKQCKDLVVFECKK [D18E],-0.087 ± 0.074
18,GFPHNFQETTYSKPTFCDNCAGFLWGVIKQGYRCKDCGMNCHKQCKDLVVFECKK [L12S],-0.123 ± 0.084
19,GFPHNFQETTYYKPTFCDNCAGFLWGVIKQGYRCKDCGMNCHKQCKDLVVFECKK [L12Y],-0.145 ± 0.12
20,GFPHNFQETTYTKPTFCDNCAGFLWGVIKQGYRCKDCGMNCHKQCKDLVVFECKK [L12T],-0.25 ± 0.093
21,GFPHNFQETTYLKPTFCDNCAGFLWGVIKQGYQCKDCGMNCHKQCKDLVVFECKK [R33Q],-0.262 ± 0.1
22,GFPHNFQETTYLWPTFCDNCAGFLWGVIKQGYRCKDCGMNCHKQCKDLVVFECKK [K13W],-0.131 ± 0.086
23,GFPHNFQETNYLKPTFCDNCAGFLWGVIKQGYRCKDCGMNCHKQCKDLVVFECKK [T10N],-0.311 ± 0.13
24,GFPHNFQETGYLKPTFCDNCAGFLWGVIKQGYRCKDCGMNCHKQCKDLVVFECKK [T10G],-0.208 ± 0.068
